Experimental data taken from US20200079833A1 (AstraZeneca / MedImmune, published 2020).
Starred links: 1 amine or outer side, 2 acyl side, 3 side chain; linkers in the order of their positions; H or OH if unused. Non-standard residues stand in square brackets, D forms with d. Groups on a side chain read outwards from the residue. Primed or numbered codes have the meaning given here. No end group written: not given here. *: point of attachment. γGlu = O=C(O)[C@H](CCC(=O)[*:2])N[*:1]; Stearoyl = CCCCCCCCCCCCCCCCCC(=O)*; Palmitoyl = CCCCCCCCCCCCCCCC(=O)*; αMeF = C[C@](N)(Cc1ccccc1)C(=O)O; αMeK = C[C@](N)(CCCCN)C(=O)O; αMeS = C[C@](N)(CO)C(=O)O; PEG2′ = not defined here; Aib = CC(C)(N)C(=O)O

T1: GLP-1R (INS1e assay) (UniProt P32301 22-463, limits assumed)
T1 sequence (looked up): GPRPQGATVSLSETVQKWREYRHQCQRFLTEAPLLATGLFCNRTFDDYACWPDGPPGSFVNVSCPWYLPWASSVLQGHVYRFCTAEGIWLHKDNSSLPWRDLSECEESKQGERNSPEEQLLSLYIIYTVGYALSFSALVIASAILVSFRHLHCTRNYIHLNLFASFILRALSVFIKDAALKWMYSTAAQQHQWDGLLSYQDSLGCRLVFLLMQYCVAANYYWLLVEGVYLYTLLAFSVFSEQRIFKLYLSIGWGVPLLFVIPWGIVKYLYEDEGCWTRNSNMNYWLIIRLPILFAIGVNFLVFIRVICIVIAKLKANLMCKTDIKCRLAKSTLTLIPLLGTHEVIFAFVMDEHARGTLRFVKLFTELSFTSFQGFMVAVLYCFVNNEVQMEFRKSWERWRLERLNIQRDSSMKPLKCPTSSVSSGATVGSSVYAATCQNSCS

B1: SEQ ID NO 90 (peptide)
peptide: H[Aib]EGS[αMeF]TSDK([γGlu-Palmitoyl])[αMeS]S[αMeF]LEGEAA[αMeK]E[αMeF]IA[αMeF]VV[αMeK]GG-NH2
modifications: N-terminus assumed
SMILES: CCCCCCCCCCCCCCCC(=O)N[C@@H](CCC(=O)NCCCC[C@H](NC(=O)[C@H](CC(=O)O)NC(=O)[C@H](CO)NC(=O)[C@@H](NC(=O)[C@](C)(Cc1ccccc1)NC(=O)[C@H](CO)NC(=O)CNC(=O)[C@H](CCC(=O)O)NC(=O)C(C)(C)NC(=O)[C@@H](N)Cc1c[nH]cn1)[C@@H](C)O)C(=O)N[C@@](C)(CO)C(=O)N[C@@H](CO)C(=O)N[C@@](C)(Cc1ccccc1)C(=O)N[C@@H](CC(C)C)C(=O)N[C@@H](CCC(=O)O)C(=O)NCC(=O)N[C@@H](CCC(=O)O)C(=O)N[C@@H](C)C(=O)N[C@@H](C)C(=O)N[C@@](C)(CCCCN)C(=O)N[C@@H](CCC(=O)O)C(=O)N[C@@](C)(Cc1ccccc1)C(=O)N[C@H](C(=O)N[C@@H](C)C(=O)N[C@@](C)(Cc1ccccc1)C(=O)N[C@H](C(=O)N[C@H](C(=O)N[C@@](C)(CCCCN)C(=O)NCC(=O)NCC(N)=O)C(C)C)C(C)C)[C@@H](C)CC)C(=O)O
B2: SEQ ID NO 91 (peptide)
peptide: H[Aib]EGS[αMeF]TSK([γGlu-Palmitoyl])V[αMeS]S[αMeF]LEGEAA[αMeK]E[αMeF]IA[αMeF]VV[αMeK]GG-NH2
modifications: N-terminus assumed
SMILES: CCCCCCCCCCCCCCCC(=O)N[C@@H](CCC(=O)NCCCC[C@H](NC(=O)[C@H](CO)NC(=O)[C@@H](NC(=O)[C@](C)(Cc1ccccc1)NC(=O)[C@H](CO)NC(=O)CNC(=O)[C@H](CCC(=O)O)NC(=O)C(C)(C)NC(=O)[C@@H](N)Cc1c[nH]cn1)[C@@H](C)O)C(=O)N[C@H](C(=O)N[C@@](C)(CO)C(=O)N[C@@H](CO)C(=O)N[C@@](C)(Cc1ccccc1)C(=O)N[C@@H](CC(C)C)C(=O)N[C@@H](CCC(=O)O)C(=O)NCC(=O)N[C@@H](CCC(=O)O)C(=O)N[C@@H](C)C(=O)N[C@@H](C)C(=O)N[C@@](C)(CCCCN)C(=O)N[C@@H](CCC(=O)O)C(=O)N[C@@](C)(Cc1ccccc1)C(=O)N[C@H](C(=O)N[C@@H](C)C(=O)N[C@@](C)(Cc1ccccc1)C(=O)N[C@H](C(=O)N[C@H](C(=O)N[C@@](C)(CCCCN)C(=O)NCC(=O)NCC(N)=O)C(C)C)C(C)C)[C@@H](C)CC)C(C)C)C(=O)O

target: T1, GLP-1R (INS1e assay); assay: cell-based or functional assay

| Binder | INS1e assay EC50 GLP-1 R n1 [nM] | INS1e assay EC50 GLP-1 R n2 [nM] | INS1e assay EC50 Mean pM GLP-1R [pM] |
| --- | --- | --- | --- |
| H[Aib]EGS[αMeF]TSDV[αMeS]S[αMeF]LEGEAA[αMeK]E[αMeF]IA[αMeF]VK([PEG2′-PEG2′-γGlu-Stearoyl])[αMeK]GG-NH2 [SEQ ID NO 102] | 4.22 | 2.89 | 3560 |
| H[Aib]EGS[αMeF]TSDV[αMeS]K([PEG2′-PEG2′-γGlu-Stearoyl])[αMeF]LEGEAA[αMeK]E[αMeF]IA[αMeF]VV[αMeK]GG-NH2 [SEQ ID NO 117] | 0.765 | 1.67 | 1220 |
| H[Aib]EGS[αMeF]TSDV[αMeS]S[αMeF]LEGEAA[αMeK]K([PEG2′-PEG2′-γGlu-Stearoyl])[αMeF]IA[αMeF]VV[αMeK]GG-NH2 [SEQ ID NO 108] | 0.038 | 0.458 | 248 |
| H[Aib]EGS[αMeF]TSDV[αMeS]S[αMeF]LEGEAK([PEG2′-PEG2′-γGlu-Stearoyl])[αMeK]E[αMeF]IA[αMeF]VV[αMeK]GG-NH2 [SEQ ID NO 110] | 31.6 | 23.1 | 27400 |
| H[Aib]EGS[αMeF]TSDV[αMeS]S[αMeF]LEGEAA[αMeK]E[αMeF]IAK([PEG2′-PEG2′-γGlu-Stearoyl])VV[αMeK]GG-NH2 [SEQ ID NO 104] | 0.391 | 0.27 | 331 |
| H[Aib]EGS[αMeF]TSDV[αMeS]S[αMeF]LEGEAA[αMeK]E[αMeF]IA[αMeF]VV[αMeK]K([PEG2′-PEG2′-γGlu-Stearoyl])G-NH2 [SEQ ID NO 100] | 0.233 | 1.41 | 822 |
| H[Aib]EGS[αMeF]TSDV[αMeS]S[αMeF]LEGEAA[αMeK]E[αMeF]IA[αMeF]VV[αMeK]GK([PEG2′-PEG2′-γGlu-Stearoyl])-NH2 [SEQ ID NO 99] | 11 | 5.88 | 8440 |
| H[Aib]EGS[αMeF]TSDV[αMeS]S[αMeF]LEGEAA[αMeK]E[αMeF]IA[αMeF]K([PEG2′-PEG2′-γGlu-Stearoyl])V[αMeK]GG-NH2 [SEQ ID NO 103] | 0.428 | 0.59 | 509 |
| B1 | 0.0434 | 0.0586 | 51 |
| H[Aib]EGS[αMeF]TSDV[αMeS]SK([PEG2′-PEG2′-γGlu-Stearoyl])LEGEAA[αMeK]E[αMeF]IA[αMeF]VV[αMeK]GG-NH2 [SEQ ID NO 116] | 1.61 | 0.61 | 1110 |
| H[Aib]EGS[αMeF]TSDV[αMeS]S[αMeF]LEGEAA[αMeK]EK([PEG2′-PEG2′-γGlu-Stearoyl])IA[αMeF]VV[αMeK]GG-NH2 [SEQ ID NO 107] | 5.23 | 11.7 | 8460 |
| B2 | 1.93 | 3.5 | 2720 |
| H[Aib]EGS[αMeF]TSDV[αMeS]S[αMeF]LEGEAA[αMeK]E[αMeF]IA[αMeF]VVK([PEG2′-PEG2′-γGlu-Stearoyl])GG-NH2 [SEQ ID NO 101] | 1.47 | 6.65 | 4060 |
| H[Aib]EGS[αMeF]TSDV[αMeS]S[αMeF]K([PEG2′-PEG2′-γGlu-Stearoyl])EGEAA[αMeK]E[αMeF]IA[αMeF]VV[αMeK]GG-NH2 [SEQ ID NO 115] | 0.593 | 0.494 | 544 |
| H[Aib]EGS[αMeF]TSDK([PEG2′-PEG2′-γGlu-Stearoyl])[αMeS]S[αMeF]LEGEAA[αMeK]E[αMeF]IA[αMeF]VV[αMeK]GG-NH2 [SEQ ID NO 119] | 2.71 | 1.45 | 2080 |
| H[Aib]EGS[αMeF]TSDV[αMeS]S[αMeF]LEK([PEG2′-PEG2′-γGlu-Stearoyl])EAA[αMeK]E[αMeF]IA[αMeF]VV[αMeK]GG-NH2 [SEQ ID NO 113] | 0.823 | 1.26 | 1040 |
| H[Aib]EGS[αMeF]TSDV[αMeS]S[αMeF]LEGEAAK([PEG2′-PEG2′-γGlu-Palmitoyl])E[αMeF]IA[αMeF]VV[αMeK]GG-NH2 [SEQ ID NO 109] | 8.35 | 4.32 | 6340 |
| H[Aib]EGS[αMeF]TSDV[αMeS]S[αMeF]LEGEK([PEG2′-PEG2′-γGlu-Stearoyl])A[αMeK]E[αMeF]IA[αMeF]VV[αMeK]GG-NH2 [SEQ ID NO 111] | 0.501 | 1.11 | 806 |
| H[Aib]EGS[αMeF]TSDV[αMeS]S[αMeF]LEGEAA[αMeK]E[αMeF]IK([PEG2′-PEG2′-γGlu-Stearoyl])[αMeF]VV[αMeK]GG-NH2 [SEQ ID NO 105] | 0.22 | 1.72 | 970 |
| H[Aib]EGS[αMeF]TSDV[αMeS]S[αMeF]LEGK([PEG2′-PEG2′-γGlu-Stearoyl])AA[αMeK]E[αMeF]IA[αMeF]VV[αMeK]GG-NH2 [SEQ ID NO 112] | 0.294 | 0.476 | 385 |
